One molecule from US20240067944A1 (published 2024) can be followed below.

No end group written: not given here.

Common to all, as to assay: ELISA, biotinylated 12-mer peptide on streptavidin, 2 ug/mL FLAG-tagged VHH, anti-FLAG-HRP
Background: ELISA stands for enzyme-linked immunosorbent assay.

One experiment addresses T1, … (human).
T1 sequence (peptide, C-terminally conjugated to biotin): LLDFNQTQPERG

The target of another experiment is T2, VAQATSSSGEAP (human).
T2 peptide: VAQATSSSGEAP-biotin
As for the experimental part: (§1) To determine whether the binding epitope of the anti-FX VHH polypeptide designated “cmpd #1” are located inside the activation peptide (AP) of human FX (SEQ ID NO:2), an ELISA assay was setup. 41 unique 12-mer peptide fragments spanning the 52 residues of the activation peptide with one amino acid spacing were immobilized in microtiter plate wells followed by incubation with the VHH polypeptide to be tested, and detection of bound ligand was performed by addition of a secondary HRP-labelled antibody.
(§2) The peptides were C-terminally conjugated to biotin and 50 μL of 1 μg/mL peptide solution was used for immobilization in discrete wells of the microtiter plate which was pre-coated with 1 μg/mL streptavidin. Each well was washed with washing buffer (10 mM Tris, 150 mM NaCl, 2.5 mM CaCl₂), 0.05% Tween 20, pH 8.60) followed by addition of 50 μL of 2 μg/mL FLAG-tagged anti-FX VHH polypeptide or IgG antibody to be tested. After 1 hour non-bound VHH polypeptide was washed off using washing buffer.
(§3) Bound anti-FX activation peptide ligand was detected by first binding a HRP-labelled secondary antibody (for FLAG-tagged VHH polypeptide: Anti-FLAG mAb M2-Peroxidase (HRP) (Sigma Aldrich, US) for 1 hour, and then adding 100 μL TMB-1 ELISA substrate (Kem-En-Tec Diagnostics, Denmark).

The target of a further experiment is T3, ATSSSGEAPDSI (human).
T3 peptide: ATSSSGEAPDSI-biotin
As to the method:
as §1, §2, §3

The target in another experiment is T4, SSSGEAPDSITW (human).
T4 peptide: SSSGEAPDSITW-biotin
As for the experimental part:
as §1, §2, §3

The target in a further experiment is T5, SSGEAPDSITWK (human).
T5 peptide: SSGEAPDSITWK-biotin
As for the experimental part: as §1, §2, §3

The target of a further experiment is T6, PDSITWKPYDAA (human).
T6 peptide: PDSITWKPYDAA-biotin
As to the method: as §1, §2, §3

For another experiment, the target named is T7, DSITWKPYDAAD (human).
T7 peptide: DSITWKPYDAAD-biotin
As for the experimental part:
as §1, §2, §3

A further experiment concerns the target T8, KPYDAADLDPTE (human).
T8 peptide: KPYDAADLDPTE-biotin
As to the method: as §1, §2, §3

For another experiment, the target named is T9, PYDAADLDPTEN (human).
T9 peptide: PYDAADLDPTEN-biotin
As for the experimental part:
as §1, §2, §3

The target in another experiment is T10, AADLDPTENPFD (human).
T10 peptide: AADLDPTENPFD-biotin
As to the method:
as §1, §2, §3

A further experiment has as its target T11, DLDPTENPFDLL (human).
T11 peptide: DLDPTENPFDLL-biotin
As for the experimental part: as §1, §2, §3

A further experiment deals with T12, LDPTENPFDLLD (human).
T12 peptide: LDPTENPFDLLD-biotin
As for the experimental part: as §1, §2, §3

Another experiment has as its target T13, DPTENPFDLLDF (human).
T13 peptide: DPTENPFDLLDF-biotin
As to the method: as §1, §2, §3

Another experiment addresses T14, PTENPFDLLDFN (human).
T14 peptide: PTENPFDLLDFN-biotin
As for the experimental part: as §1, §2, §3

A further experiment deals with T15, TENPFDLLDFNQ (human).
T15 peptide: TENPFDLLDFNQ-biotin
As for the experimental part:
as §1, §2, §3

The next experiment deals with T16, NPFDLLDFNQTQ (human).
T16 peptide: NPFDLLDFNQTQ-biotin
As for the experimental part:
as §1, §2, §3

The next experiment concerns the target T17, FNQTQPERGDNN (human).
T17 peptide: FNQTQPERGDNN-biotin
As to the method:
as §1, §2, §3

The target in a further experiment is T18, QTQPERGDNNLT (human).
T18 peptide: QTQPERGDNNLT-biotin
As to the method:
as §1, §2, §3

B1: Cmpd #1 (monovalent anti-FX VHH polypeptide, VHH-1.1) (VHH)
VHH: EVQLVESGGGLVQPGGSLRLSCAASGSIGAFDAMGWYRQAPGKQRELVAGIMVSRGNTNYTDSVKGRFTISRDNAKNTVYLQMNSLKPEDTAVYYCKAVKRPGPGYLEVWGQGTLVTVSS
notes: No protractor
With B1, the ELISA signal normalized relative to the background signal (relative to background) in the experiment with … (human) came out at 1.88. The “ELISA signal normalized relative to the background signal” value with VAQATSSSGEAP is 1.02 relative to background; with ATSSSGEAPDSI, 0.98 relative to background; with SSSGEAPDSITW, 0.86 relative to background; with SSGEAPDSITWK it was 0.88 relative to background; with PDSITWKPYDAA, 1.05 relative to background; with DSITWKPYDAAD, 1.08 relative to background. Also, the “ELISA signal normalized relative to the background signal” value with KPYDAADLDPTE was 0.8 relative to background; with PYDAADLDPTEN, 0.83 relative to background; with AADLDPTENPFD it was 0.88 relative to background; in the experiment with DLDPTENPFDLL it was 1 relative to background; with LDPTENPFDLLD it was 1.11 relative to background; with DPTENPFDLLDF, 4.16 relative to background. The “ELISA signal normalized relative to the background signal” value was 4.58 relative to background with PTENPFDLLDFN; 4.84 relative to background with TENPFDLLDFNQ; 3.13 relative to background with NPFDLLDFNQTQ; 1 relative to background with FNQTQPERGDNN; 0.88 relative to background with QTQPERGDNNLT.
